Measurements as given in patent US20150344570A1 (published 2015).

T1: FcγRIIb extracellular domain with C-terminal His tag (human, UniProt P31994 43-217)
T1 construct: extracellular domain; Expressed in FreeStyle293 cells; analyte in the SPR assay; also called FcgRIIb; 2b
T1 sequence (looked up): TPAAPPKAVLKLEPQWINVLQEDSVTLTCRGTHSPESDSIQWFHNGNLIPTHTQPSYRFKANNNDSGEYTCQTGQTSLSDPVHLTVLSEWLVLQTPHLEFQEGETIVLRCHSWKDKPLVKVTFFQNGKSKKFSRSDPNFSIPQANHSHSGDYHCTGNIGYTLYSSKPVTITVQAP

T2: FcγRIIa R (FcγRIIa allotype with Arg at position 131), extracellular domain with C-terminal His tag (human, UniProt P12318 34-217)
T2 construct: extracellular domain; made in FreeStyle293 cells; analyte in the Biacore assay; also called FcγRIIa type R; 2aR
T2 sequence (looked up): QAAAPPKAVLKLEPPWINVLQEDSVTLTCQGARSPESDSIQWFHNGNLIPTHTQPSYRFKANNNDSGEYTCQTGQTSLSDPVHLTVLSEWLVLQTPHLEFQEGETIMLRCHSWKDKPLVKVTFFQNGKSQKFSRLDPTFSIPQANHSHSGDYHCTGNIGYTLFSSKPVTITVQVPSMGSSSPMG

T3: FcγRIIb, extracellular domain with C-terminal His tag (human, UniProt P31994 43-217)
T3 construct: extracellular domain; made in FreeStyle293 cells; analyte in the Biacore assay; also called 2b; FcgRIIb
T3 sequence (looked up): T1 sequence (looked up)

B1: GpH7-A5/GpH7-B3 variant P271_19Q/GpL16-k0 (He Ab) (antibody, human IgG1, kappa)
heavy 1: not shown
heavy 2: not shown
light: DIVMTQSPLSLPVTPGEPASISCQASESLVHSNRNTYLHWYLQKPGQSPQLLIYKVSNRFSGVPDRFSGSGSGTDFTLKISRVEAEDVGVYYCSQNTHVPPTFGQGTKVEIERTVAAPSVFIFPPSDEQLKSGTASVVCLLNNFYPREAKVQWKVDNALQSGNSQESVTEQDSKDSTYSLSSTLTLSKADYEKHKVYACEVTHQGLSSPVTKSFNRGEC
notes: He Ab: mutation in one H chain only
B2: GpH7-A5/GpH7-B3 variant S239_14T/GpL16-k0 (He Ab) (antibody, human IgG1, kappa)
heavy 1: not shown
heavy 2: not shown
light: B1 light
notes: as for B1
B3: GpH7-A5/GpH7-B3 variant Q295_04F/GpL16-k0 (He Ab) (antibody, human IgG1, kappa)
heavy 1: not shown
heavy 2: not shown
light: B1 light
notes: as for B1
B4: GpH7-A5/GpH7-B3 variant Q295_07I/GpL16-k0 (He Ab) (antibody, human IgG1, kappa)
heavy 1: not shown
heavy 2: not shown
light: B1 light
notes: as for B1
B5: GpH7-A5/GpH7-B3 variant S239_19Q/GpL16-k0 (He Ab) (antibody, human IgG1, kappa)
heavy 1: not shown
heavy 2: not shown
light: B1 light
notes: as for B1
B6: GpH7-A5/GpH7-B3 variant V266_19Q/GpL16-k0 (He Ab) (antibody, human IgG1, kappa)
heavy 1: not shown
heavy 2: not shown
light: B1 light
notes: as for B1
B7: GpH7-A5/GpH7-B3 variant P271_20W/GpL16-k0 (He Ab) (antibody, human IgG1, kappa)
heavy 1: not shown
heavy 2: not shown
light: B1 light
notes: as for B1
B8: GpH7-A5/GpH7-B3 variant S267_18N/GpL16-k0 (He Ab) (antibody, human IgG1, kappa)
heavy 1: not shown
heavy 2: not shown
light: B1 light
notes: as for B1
B9: GpH7-A5/GpH7-B3 variant S267_16H/GpL16-k0 (He Ab) (antibody, human IgG1, kappa)
heavy 1: not shown
heavy 2: not shown
light: B1 light
notes: as for B1
B10: GpH7-A5/GpH7-B3 variant Q295_05P/GpL16-k0 (He Ab) (antibody, human IgG1, kappa)
heavy 1: not shown
heavy 2: not shown
light: B1 light
notes: as for B1
B11: GpH7-A5/GpH7-B3 variant Q295_06M/GpL16-k0 (He Ab) (antibody, human IgG1, kappa)
heavy 1: not shown
heavy 2: not shown
light: B1 light
notes: as for B1
B12: GpH7-A5/GpH7-B3 variant Q295_03V/GpL16-k0 (He Ab) (antibody, human IgG1, kappa)
heavy 1: not shown
heavy 2: not shown
light: B1 light
notes: as for B1
B13: GpH7-A5/GpH7-B3 variant Q295_02A/GpL16-k0 (He Ab) (antibody, human IgG1, kappa)
heavy 1: not shown
heavy 2: not shown
light: B1 light
notes: as for B1
B14: GpH7-A5/GpH7-B3 variant Q295_06M/GpL16-k0 (antibody, human IgG1, kappa)
heavy 1: not shown
heavy 2: not shown
light: B1 light
notes: heterodimerized IgG1, mutation in one H chain only; also called He Ab
B15: GpH7-A5/GpH7-B3 variant H268_11K/GpL16-k0 (antibody, human IgG1, kappa)
heavy 1: not shown
heavy 2: not shown
light: B1 light
notes: as for B14
B16: GpH7-A5/GpH7-B3 variant H268_12R/GpL16-k0 (antibody, human IgG1, kappa)
heavy 1: not shown
heavy 2: not shown
light: B1 light
notes: as for B14
B17: GpH7-A5/GpH7-B3 variant N325_10E/GpL16-k0 (antibody, human IgG1, kappa)
heavy 1: not shown
heavy 2: not shown
light: B1 light
notes: as for B14
B18: GpH7-A5/GpH7-B3 variant P331_13S/GpL16-k0 (antibody, human IgG1, kappa)
heavy 1: not shown
heavy 2: not shown
light: B1 light
notes: as for B14
B19: GpH7-A5/GpH7-B3 variant A330_15Y/GpL16-k0 (antibody, human IgG1, kappa)
heavy 1: not shown
heavy 2: not shown
light: B1 light
notes: as for B14
B20: GpH7-A5/GpH7-B3 variant P331_18N/GpL16-k0 (antibody, human IgG1, kappa)
heavy 1: not shown
heavy 2: not shown
light: B1 light
notes: as for B14

Biological target: T1, FcγRIIb extracellular domain with …
Test: SPR (Biacore), relative binding, HeCon Ab = 100

Row | He/Con_2b | Binder
1 | 88.6 % of HeCon Ab (=100) | B1
2 | 97.3 % of HeCon Ab (=100) | B2
3 | 64.7 % of HeCon Ab (=100) | B3
4 | 84.3 % of HeCon Ab (=100) | B4
5 | 86.1 % of HeCon Ab (=100) | B5
6 | 89.2 % of HeCon Ab (=100) | B6
7 | 58.1 % of HeCon Ab (=100) | B7
8 | 47.7 % of HeCon Ab (=100) | B8
9 | 65.9 % of HeCon Ab (=100) | B9
10 | 67.5 % of HeCon Ab (=100) | B10
11 | 90.4 % of HeCon Ab (=100) | B11
12 | 75.7 % of HeCon Ab (=100) | B12
13 | 79.7 % of HeCon Ab (=100) | B13

Biological target: T4, FcγRIa extracellular domain with C-terminal His tag (human, UniProt P12314 16-292)
T4 construct: extracellular domain; Expressed in FreeStyle293 cells; analyte in the SPR assay; also called FcgRI; 1a
T4 sequence (P12314 16-292): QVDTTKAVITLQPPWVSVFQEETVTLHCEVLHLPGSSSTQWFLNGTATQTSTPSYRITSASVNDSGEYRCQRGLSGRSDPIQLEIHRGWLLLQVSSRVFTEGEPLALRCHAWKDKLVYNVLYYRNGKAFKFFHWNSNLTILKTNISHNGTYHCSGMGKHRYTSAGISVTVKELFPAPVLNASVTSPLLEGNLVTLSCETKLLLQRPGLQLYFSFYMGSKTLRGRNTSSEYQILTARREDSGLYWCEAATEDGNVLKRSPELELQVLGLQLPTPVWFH
Test: SPR (Biacore), relative binding, HeCon Ab = 100

Row | He/Con_1a | Binder
14 | 103 % of HeCon Ab (=100) | B1
15 | 101 % of HeCon Ab (=100) | B2
16 | 102 % of HeCon Ab (=100) | B3
17 | 103 % of HeCon Ab (=100) | B4
18 | 101 % of HeCon Ab (=100) | B5
19 | 100 % of HeCon Ab (=100) | B6
20 | 103 % of HeCon Ab (=100) | B7
21 | 102 % of HeCon Ab (=100) | B8
22 | 100 % of HeCon Ab (=100) | B9
23 | 103 % of HeCon Ab (=100) | B10
24 | 104 % of HeCon Ab (=100) | B11
25 | 104 % of HeCon Ab (=100) | B12
26 | 104 % of HeCon Ab (=100) | B13

Biological target: T2, FcγRIIa R (FcγRIIa allotype with Arg at …)
Test: SPR (Biacore), antibody captured, FcγR analyte; vs GpH7-A5/GpH7-B3/GpL16-k0 = 100
Method: (§1) The heterodimerized antibodies He Abs in which one of the H chains was introduced with an alteration were assayed for their binding activities to each activating FcγR and inhibitory FcγR according to the method described in Example 4. […] The activating FcγRs in FIGS. 26, 27, 28, and 29 are FcγRIa, FcγRIIa (R), FcγRIIa (H), and FcγRIIIa, respectively.
(§2) Analysis of interaction between objective antibody and the FcγR was carried out using Biacore T100 (GE Healthcare). HBS-EP+ (GE Healthcare) was used as the running buffer, and the measurement temperature was set to 25° C. Chips produced by immobilizing the antigen peptide by the amine coupling method to a Series S Sencor Chip CM5 (GE Healthcare), or alternatively, chips produced by allowing preliminarily biotinylated antigen peptides to interact with and immobilize onto a Series S Sensor Chip SA (certified) (GE Healthcare) were used. Antibodies of interest were captured onto an antigen peptide-immobilized chip, and allowed to interact to each FcγR diluted with running buffer. To regenerate and repeatedly use the chip, the antibodies captured on the chip were washed off by reacting 10 mM glycine-HCl, pH 1.5.

Row | He/Con_2aR | Binder
27 | 102 relative (HeCon Ab = 100) | B14
28 | 100 relative (HeCon Ab = 100) | B15
29 | 105 relative (HeCon Ab = 100) | B16
30 | 105 relative (HeCon Ab = 100) | B17
31 | 105 relative (HeCon Ab = 100) | B18
32 | 102 relative (HeCon Ab = 100) | B19
33 | 105 relative (HeCon Ab = 100) | B20

Biological target: T3, FcγRIIb, extracellular domain with …
Test: as above
Method: as §1, §2

Row | He/Con_2b | Binder
34 | 90.4 relative (HeCon Ab = 100) | B14
35 | 83 relative (HeCon Ab = 100) | B15
36 | 89.8 relative (HeCon Ab = 100) | B16
37 | 95.9 relative (HeCon Ab = 100) | B17
38 | 96.8 relative (HeCon Ab = 100) | B18
39 | 95 relative (HeCon Ab = 100) | B19
40 | 99.2 relative (HeCon Ab = 100) | B20
